Where no end group is shown, it is not given here.
These binders were tested against T1, human angiotensin converting enzyme 2 (ACE2), recombinant (human, UniProt Q9BYF1 18-740) (assay: BLI; biotinylated peptide immobilised on streptavidin tips (loaded at 1.0-2.0 uM); protein in solution (ACE2 at 1000, 500, 250, 125 and 62.5 nM); 30 °C, 1000 rpm; 1 x PBS with 0.1% BSA and 0.02% Tween-20; 180 s association; global 1:1 fit; apparent KD). Conditions: both partners purified.
T1 construct: also called soluble ACE2; recombinant ACE2 protein; source: bought: Sino Biological (Catalog number 10108-H08H) for BLI
T1 sequence (Q9BYF1 18-740): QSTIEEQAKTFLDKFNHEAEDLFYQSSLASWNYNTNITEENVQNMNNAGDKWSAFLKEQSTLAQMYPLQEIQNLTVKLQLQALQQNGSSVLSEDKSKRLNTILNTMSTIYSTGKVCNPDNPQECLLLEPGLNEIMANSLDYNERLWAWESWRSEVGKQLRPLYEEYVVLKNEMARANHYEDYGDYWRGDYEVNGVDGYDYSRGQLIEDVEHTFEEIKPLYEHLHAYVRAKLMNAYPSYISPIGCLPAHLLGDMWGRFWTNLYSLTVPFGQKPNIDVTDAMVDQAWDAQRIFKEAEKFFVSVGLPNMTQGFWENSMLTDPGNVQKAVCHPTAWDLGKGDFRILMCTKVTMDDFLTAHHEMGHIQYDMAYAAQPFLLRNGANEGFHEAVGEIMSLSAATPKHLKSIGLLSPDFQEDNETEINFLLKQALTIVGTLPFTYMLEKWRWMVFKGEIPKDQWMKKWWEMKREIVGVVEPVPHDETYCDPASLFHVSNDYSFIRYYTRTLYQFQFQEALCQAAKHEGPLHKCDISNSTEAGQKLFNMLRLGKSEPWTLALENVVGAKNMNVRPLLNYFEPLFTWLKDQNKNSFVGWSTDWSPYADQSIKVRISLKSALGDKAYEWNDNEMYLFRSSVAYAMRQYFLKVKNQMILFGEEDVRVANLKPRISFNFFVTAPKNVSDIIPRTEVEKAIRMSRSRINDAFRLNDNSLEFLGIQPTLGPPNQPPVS
Work on LHKQFGWHWFGFK-NH2 (also: biotinylated, position not given here) [ACE2-binding peptide ABP C3] yielded a Kd of 35 nM. For LQRGVFGFPYRVK-NH2 (also: biotinylated, position not given here) [ACE2-binding peptide ABP C7], the Kd was 26 nM. LQWHPAYWFMQVK-NH2 (also: biotinylated, position not given here) [ACE2-binding peptide ABP C8] was tested, and the Kd was 36 nM.

— article PMC9814530, “Rapid de novo discovery of peptidomimetic affinity reagents for human angiotensin converting enzyme 2” (Communications Chemistry, 2022)
